Laboratory results taken from patent US20140072613A1, “Compositions and Methods for Treating Cutaneous Scarring” (priority 2012, published 2014).

Assays:
Experiment in all cases: cell-based or functional assay
[1] = target: T1, NEK11(h) (human) (UniProt Q8NG66)
T1 sequence (looked up): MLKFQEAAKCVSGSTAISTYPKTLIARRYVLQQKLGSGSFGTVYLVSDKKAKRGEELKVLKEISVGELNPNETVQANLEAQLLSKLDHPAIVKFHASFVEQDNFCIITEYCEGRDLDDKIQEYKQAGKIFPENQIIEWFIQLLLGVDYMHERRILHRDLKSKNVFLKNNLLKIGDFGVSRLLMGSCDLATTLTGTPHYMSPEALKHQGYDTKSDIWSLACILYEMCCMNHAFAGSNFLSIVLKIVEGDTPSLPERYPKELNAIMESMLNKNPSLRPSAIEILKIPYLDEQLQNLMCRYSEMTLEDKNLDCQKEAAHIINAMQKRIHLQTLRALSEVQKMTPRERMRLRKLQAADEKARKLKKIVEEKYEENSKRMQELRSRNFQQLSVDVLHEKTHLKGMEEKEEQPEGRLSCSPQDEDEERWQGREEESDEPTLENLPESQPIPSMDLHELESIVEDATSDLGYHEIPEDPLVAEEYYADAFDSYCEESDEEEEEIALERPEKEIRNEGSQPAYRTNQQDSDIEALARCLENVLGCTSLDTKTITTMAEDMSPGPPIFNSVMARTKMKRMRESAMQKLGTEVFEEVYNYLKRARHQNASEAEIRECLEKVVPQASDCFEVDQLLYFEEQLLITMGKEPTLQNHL

[2] = target: cKit(D816V)(h) (human) (UniProt P10721)
cKit(D816V)(h) (human), sequence (P10721 544-976 D816V): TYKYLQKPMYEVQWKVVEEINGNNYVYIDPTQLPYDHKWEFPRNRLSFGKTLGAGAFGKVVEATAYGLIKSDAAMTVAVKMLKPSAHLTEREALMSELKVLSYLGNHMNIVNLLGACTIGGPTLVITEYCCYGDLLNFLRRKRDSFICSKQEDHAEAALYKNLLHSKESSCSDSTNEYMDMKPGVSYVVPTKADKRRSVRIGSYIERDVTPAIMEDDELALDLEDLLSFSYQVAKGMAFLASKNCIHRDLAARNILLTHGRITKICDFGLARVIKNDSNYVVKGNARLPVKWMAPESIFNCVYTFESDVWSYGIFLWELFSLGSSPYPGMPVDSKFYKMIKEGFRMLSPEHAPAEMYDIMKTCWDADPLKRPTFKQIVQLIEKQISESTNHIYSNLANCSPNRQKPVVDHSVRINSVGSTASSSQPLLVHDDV

[3] = target: Rsk1(h) (human) (UniProt Q15418)
Rsk1(h) (human), sequence (Q15418 whole entry): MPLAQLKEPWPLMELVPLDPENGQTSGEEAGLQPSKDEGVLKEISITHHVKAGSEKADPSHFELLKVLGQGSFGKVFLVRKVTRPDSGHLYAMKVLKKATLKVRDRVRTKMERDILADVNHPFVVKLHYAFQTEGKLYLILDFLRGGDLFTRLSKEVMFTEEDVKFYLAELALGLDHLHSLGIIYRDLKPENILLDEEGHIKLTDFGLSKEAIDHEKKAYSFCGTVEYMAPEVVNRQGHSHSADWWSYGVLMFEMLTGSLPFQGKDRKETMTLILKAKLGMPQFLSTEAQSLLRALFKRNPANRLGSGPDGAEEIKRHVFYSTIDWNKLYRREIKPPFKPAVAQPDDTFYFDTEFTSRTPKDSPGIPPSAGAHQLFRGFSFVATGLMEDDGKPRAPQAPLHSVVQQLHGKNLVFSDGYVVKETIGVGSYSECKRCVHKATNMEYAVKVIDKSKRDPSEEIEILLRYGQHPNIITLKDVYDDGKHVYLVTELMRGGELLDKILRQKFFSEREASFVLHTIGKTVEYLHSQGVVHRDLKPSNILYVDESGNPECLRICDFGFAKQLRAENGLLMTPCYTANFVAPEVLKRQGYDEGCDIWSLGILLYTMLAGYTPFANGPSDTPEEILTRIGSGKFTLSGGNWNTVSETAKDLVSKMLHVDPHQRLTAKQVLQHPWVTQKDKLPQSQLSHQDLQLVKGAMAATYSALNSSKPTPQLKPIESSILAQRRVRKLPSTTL

[4] = target: Abl(H8396P)(h) (human) (UniProt P00519)
Abl(H8396P)(h) (human), sequence (P00519 27-1130, stated change not applied): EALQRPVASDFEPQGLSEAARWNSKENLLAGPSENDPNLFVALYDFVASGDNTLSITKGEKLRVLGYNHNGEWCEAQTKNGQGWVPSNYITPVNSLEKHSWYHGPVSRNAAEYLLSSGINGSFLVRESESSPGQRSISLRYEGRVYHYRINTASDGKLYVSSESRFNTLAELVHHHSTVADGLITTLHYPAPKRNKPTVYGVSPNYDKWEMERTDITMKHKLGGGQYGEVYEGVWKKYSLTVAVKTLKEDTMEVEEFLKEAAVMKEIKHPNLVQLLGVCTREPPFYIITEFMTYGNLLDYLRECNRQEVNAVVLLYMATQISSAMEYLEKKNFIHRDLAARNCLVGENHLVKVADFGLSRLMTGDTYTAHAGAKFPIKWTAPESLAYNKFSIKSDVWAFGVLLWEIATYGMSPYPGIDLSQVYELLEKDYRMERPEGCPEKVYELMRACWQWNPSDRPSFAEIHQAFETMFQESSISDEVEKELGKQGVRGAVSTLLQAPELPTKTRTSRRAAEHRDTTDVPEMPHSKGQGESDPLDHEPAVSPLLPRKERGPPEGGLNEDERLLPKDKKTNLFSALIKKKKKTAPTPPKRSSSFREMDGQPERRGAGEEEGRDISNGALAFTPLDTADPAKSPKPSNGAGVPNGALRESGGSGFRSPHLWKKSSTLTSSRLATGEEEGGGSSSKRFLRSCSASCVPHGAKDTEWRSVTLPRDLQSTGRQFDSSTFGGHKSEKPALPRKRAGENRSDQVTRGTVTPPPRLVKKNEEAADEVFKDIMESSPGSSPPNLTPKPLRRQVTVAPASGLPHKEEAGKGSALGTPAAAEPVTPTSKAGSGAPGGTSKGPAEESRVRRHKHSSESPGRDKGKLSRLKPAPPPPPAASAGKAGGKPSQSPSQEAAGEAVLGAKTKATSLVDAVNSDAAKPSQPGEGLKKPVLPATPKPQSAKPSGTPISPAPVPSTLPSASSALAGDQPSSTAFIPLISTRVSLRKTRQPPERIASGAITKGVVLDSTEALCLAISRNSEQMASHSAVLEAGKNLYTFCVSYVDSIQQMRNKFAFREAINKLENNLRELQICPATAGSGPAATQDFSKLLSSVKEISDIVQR

[5] = target: T2, NEK2(h) (human) (UniProt P51955)
T2 sequence (looked up): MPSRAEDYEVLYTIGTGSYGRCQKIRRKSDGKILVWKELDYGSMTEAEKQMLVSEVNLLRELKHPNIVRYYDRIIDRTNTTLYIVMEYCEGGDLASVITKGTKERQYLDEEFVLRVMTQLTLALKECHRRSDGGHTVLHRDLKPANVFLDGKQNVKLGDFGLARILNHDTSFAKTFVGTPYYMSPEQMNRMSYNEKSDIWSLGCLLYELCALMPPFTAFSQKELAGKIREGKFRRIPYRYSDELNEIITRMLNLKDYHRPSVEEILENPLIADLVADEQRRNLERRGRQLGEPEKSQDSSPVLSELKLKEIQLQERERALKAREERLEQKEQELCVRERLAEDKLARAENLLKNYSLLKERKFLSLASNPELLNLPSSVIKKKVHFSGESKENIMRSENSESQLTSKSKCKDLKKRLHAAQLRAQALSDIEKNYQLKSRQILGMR

[6] = target: IR(h) (human) (UniProt P06213)
IR(h) (human), sequence (P06213 1005-1310 limits assumed): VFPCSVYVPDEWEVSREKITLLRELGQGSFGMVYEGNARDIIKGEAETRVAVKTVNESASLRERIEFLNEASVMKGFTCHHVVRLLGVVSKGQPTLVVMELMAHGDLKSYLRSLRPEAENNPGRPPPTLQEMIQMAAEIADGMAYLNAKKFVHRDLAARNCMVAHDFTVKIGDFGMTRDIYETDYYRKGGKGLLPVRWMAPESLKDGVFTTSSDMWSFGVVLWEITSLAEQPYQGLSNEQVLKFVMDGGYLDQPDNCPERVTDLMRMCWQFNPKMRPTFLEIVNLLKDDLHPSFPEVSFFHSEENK

[7] = target: T3, Tec(h)activated (human) (UniProt P42680)
T3 sequence (looked up): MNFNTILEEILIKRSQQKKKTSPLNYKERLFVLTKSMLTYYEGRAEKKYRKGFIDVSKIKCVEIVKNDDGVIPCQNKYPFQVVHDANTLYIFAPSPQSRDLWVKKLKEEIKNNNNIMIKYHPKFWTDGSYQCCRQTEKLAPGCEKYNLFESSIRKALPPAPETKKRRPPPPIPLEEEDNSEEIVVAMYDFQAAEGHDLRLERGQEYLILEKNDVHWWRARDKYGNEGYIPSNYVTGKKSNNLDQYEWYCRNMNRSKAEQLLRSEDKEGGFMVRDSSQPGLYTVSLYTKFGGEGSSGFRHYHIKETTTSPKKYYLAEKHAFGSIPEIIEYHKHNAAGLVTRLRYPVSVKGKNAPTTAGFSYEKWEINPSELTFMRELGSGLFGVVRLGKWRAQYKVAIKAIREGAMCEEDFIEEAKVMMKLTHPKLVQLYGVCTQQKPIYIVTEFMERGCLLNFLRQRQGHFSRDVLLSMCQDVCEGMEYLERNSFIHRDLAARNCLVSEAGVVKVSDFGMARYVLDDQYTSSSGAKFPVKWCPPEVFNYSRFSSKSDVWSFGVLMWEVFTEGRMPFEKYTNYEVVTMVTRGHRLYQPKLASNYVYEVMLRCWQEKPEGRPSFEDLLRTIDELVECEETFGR

[8] = target: FGFR2(h) (human) (UniProt P21802)
FGFR2(h) (human), sequence (P21802 456-770 limits assumed): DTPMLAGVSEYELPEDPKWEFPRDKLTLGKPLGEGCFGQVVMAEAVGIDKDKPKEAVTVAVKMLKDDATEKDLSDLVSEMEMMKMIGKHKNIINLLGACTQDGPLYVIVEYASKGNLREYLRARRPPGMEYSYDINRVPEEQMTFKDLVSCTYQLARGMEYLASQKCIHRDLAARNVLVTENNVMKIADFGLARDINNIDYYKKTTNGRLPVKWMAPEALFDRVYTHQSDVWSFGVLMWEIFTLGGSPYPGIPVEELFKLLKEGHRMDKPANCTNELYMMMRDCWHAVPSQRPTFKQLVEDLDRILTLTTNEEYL

[9] = target: MARK1(h) (human) (UniProt Q9P0L2)
MARK1(h) (human), sequence (Q9P0L2 whole entry): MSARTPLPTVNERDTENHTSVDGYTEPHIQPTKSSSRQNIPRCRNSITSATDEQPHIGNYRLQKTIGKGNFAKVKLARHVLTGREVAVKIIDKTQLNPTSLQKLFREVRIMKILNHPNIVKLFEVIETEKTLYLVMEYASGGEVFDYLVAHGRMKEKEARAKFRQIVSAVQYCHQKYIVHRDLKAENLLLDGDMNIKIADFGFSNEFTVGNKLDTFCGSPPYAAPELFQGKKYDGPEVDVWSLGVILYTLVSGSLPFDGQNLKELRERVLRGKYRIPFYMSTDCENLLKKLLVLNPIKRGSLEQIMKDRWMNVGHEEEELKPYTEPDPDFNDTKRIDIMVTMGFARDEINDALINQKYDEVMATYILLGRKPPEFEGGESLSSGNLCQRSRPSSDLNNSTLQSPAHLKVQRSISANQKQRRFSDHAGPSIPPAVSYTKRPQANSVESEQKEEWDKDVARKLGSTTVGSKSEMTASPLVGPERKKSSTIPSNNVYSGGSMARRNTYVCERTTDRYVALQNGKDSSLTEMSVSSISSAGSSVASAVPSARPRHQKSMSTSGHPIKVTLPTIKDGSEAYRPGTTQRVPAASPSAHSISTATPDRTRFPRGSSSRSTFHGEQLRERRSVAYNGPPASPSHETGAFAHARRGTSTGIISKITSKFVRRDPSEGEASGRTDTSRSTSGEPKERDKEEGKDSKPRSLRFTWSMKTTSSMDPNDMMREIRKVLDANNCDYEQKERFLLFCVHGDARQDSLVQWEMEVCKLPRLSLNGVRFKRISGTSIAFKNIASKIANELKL

[10] = target: T4, SGK2(h) (human) (UniProt Q9HBY8)
T4 sequence (looked up): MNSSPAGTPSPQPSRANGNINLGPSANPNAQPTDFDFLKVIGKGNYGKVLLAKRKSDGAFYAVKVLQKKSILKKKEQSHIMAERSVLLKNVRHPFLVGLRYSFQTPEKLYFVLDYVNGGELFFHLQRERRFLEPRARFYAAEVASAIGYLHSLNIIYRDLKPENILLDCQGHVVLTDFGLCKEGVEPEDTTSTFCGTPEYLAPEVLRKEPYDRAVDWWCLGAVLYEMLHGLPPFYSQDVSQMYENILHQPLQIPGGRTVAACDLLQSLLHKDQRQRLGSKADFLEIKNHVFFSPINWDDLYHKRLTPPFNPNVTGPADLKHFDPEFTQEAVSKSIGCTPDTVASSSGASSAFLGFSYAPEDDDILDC

% activity, 100 µM [1]: 2% | % activity, 100 µM [2]: 30% | % activity, 100 µM [3]: 34% | % activity, 100 µM [4]: 51% | % activity, 100 µM [5]: 0% | % activity, 100 µM [6]: 95% | % activity, 100 µM [7]: 33% | % activity, 100 µM [8]: 12% | % activity, 100 µM [9]: 110% | % activity, 100 µM [10]: -1%
Substance: MMI-0500 (peptide)
